In assay [1] the target is Con1 HMW1 Δ123 (hepatitis C virus genotype 1b, strain Con1) (UniProt Q9WMX2). Kind of assay: direct ELISA on coated antigen; ratio of curve mid-points.
Assay [2] concerns the target H77c HMW1 Δ123 (hepatitis C virus genotype 1a, strain H77c) (UniProt P27958). Described as above.
Assay [3] deals with S52 HMW1 Δ123 (hepatitis C virus genotype 3a, strain S52). The description is as above.
Assay [4] has as its target T1, dimeric maltose binding protein (MBP)-CD81-LEL113-201 (UniProt P60033 113-201).
T1 construct: range 113-201; Coated on ELISA plates; The order of the parts follows the printed name, and no linker is stated; also called recombinant CD81
T1 sequence: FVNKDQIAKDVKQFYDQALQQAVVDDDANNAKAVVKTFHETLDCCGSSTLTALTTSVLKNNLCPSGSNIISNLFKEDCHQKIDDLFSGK
Kind of assay: sandwich ELISA, MBP-CD81-LEL coated, anti-HIS detection. In general terms: An ELISA detects its analyte on a solid surface through an enzyme-linked reagent.

A value given as a limit tells only on which side of the number the result lay.

On to AR3B (antibody), for which the binding to HMW1 Δ123 relative to H77c HMW1 Δ123 in assay [1] was below 6.58 fold; in assay [3], below 1.68 fold. For the same molecule, the binding to HMW1 Δ123 relative to monomeric Δ123 of corresponding strain in assay [1] is 0.17 fold; in assay [2] it was below 0.37 fold; in assay [3] it was below 0.09 fold.
As for CBH-4B (antibody), the binding to HMW1 Δ123 relative to H77c HMW1 Δ123 in assay [1] and in assay [3] was below 1 fold each time. Moreover, the binding to HMW1 Δ123 relative to monomeric Δ123 of corresponding strain in assay [1] was below 0.24 fold; in assay [2] it was below 0.27 fold; in assay [3] it was below 0.62 fold.
HCV1 (antibody): the binding to HMW1 Δ123 relative to H77c HMW1 Δ123 came out at 2.05 fold in assay [1] and 2.08 fold in assay [3]. The figures for the binding to HMW1 Δ123 relative to monomeric Δ123 of corresponding strain in assay [1], in assay [2] and in assay [3] were 1.46 fold, 1.21 fold and 0.92 fold, respectively.
For the molecule AR3C (antibody), the values for the binding to HMW1 Δ123 relative to H77c HMW1 Δ123 in assay [1] and in assay [3] were 3.92 fold and 6.17 fold, respectively. For the same molecule, the binding to HMW1 Δ123 relative to monomeric Δ123 of corresponding strain in assay [1] turned out to be 0.13 fold; in assay [2] it was 0.18 fold; in assay [3] it was 0.54 fold.
Turning to CBH-4D (antibody), the binding to HMW1 Δ123 relative to H77c HMW1 Δ123 was below 1.23 fold in assay [1] and below 1.68 fold in assay [3]. Moreover, the binding to HMW1 Δ123 relative to monomeric Δ123 of corresponding strain in assay [1] is below 0.11 fold; in assay [2], below 0.27 fold; in assay [3], below 0.07 fold.
For the molecule HC-11 (antibody), the figures for the binding to HMW1 Δ123 relative to H77c HMW1 Δ123 in assay [1] and in assay [3] were 6.97 fold and 1 fold, respectively. For the same molecule, the binding to HMW1 Δ123 relative to monomeric Δ123 of corresponding strain is 0.28 fold in assay [1], 0.21 fold in assay [2] and below 0.2 fold in assay [3].
For the molecule AR3D (antibody), the binding to HMW1 Δ123 relative to H77c HMW1 Δ123 in assay [1] is 4.73 fold. Moreover, the binding to HMW1 Δ123 relative to monomeric Δ123 of corresponding strain in assay [1] is 0.08 fold; in assay [2] it was below 0.17 fold.

B1: Con1 Δ123 glycoproteins, unfractionated (cell culture supernatant and TALON eluate) (other)
chain: GTYGSSGQLVNTNGSWHINRTALNCNDSLNTGFLAALFYVHKFNSSGCPERMASCGSSGCWHYAPRPCGIVPAAQVCGPVYCFTPSPVVVGTTDRFGVPTYSWGENETDVLLLNNTRPPQGNWFGCTWMNSTGFTKTCGGPPCGSSGCPTDCFRKHPEATYTKCGSGPWLTPRCLVHYPYRLWHYPCTVNFTIFKVRMYVGGVEHRLEAACNWTRGERCNLEDRDRSEHHHHHH
notes: Mixture of monomers, dimers and HMW forms as secreted by FS293F cells
As for B1, in assay [4], the binding result is on record as “binds”.

B2: S52 Δ123 glycoproteins, unfractionated (cell culture supernatant and TALON eluate) (other)
chain: ETHQKLQLVNTNGSWHINSTALNCNESINTGFIAGLFYYHKFNSTGCPQRLSSCGSSGCWHYAPRPCSVVPASSVCGPVYCFTPSPVVVGTTDIKGKPTYNWGENETDVFLLESLRPPSGRWFGCAWMNSTGFLKTCGAPPCGSSGCPTDCFRKHPEATYSRCGAGPWLTPRCMVDYPYRLWHYPCTVNFTLFKVRMFVGGFEHRFTAACNWTRGERCNIEDRDRSEHHHHHH
notes: as for B1
Take B2: in assay [4], the binding result is reported as “binds”.

The record behind these values is patent US20250215048A1 (MACFARLANE BURNET INSTITUTE FOR MEDICAL RESEARCH AND PUBLIC …, published 2025).
